# Assay results as given in patent US20260193348A1 (ANTENGENE BIOLOGICS, published 2026).
# T1: CD19 on NALM6 cells, Raji cells and primary B cells (human, UniProt P15391 20-556)
# T1 construct: whole, on cells; Endogenous CD19 on human cell lines / donor B cells; also called NALM6 cells expressing CD19; Raji cells expressing CD19
# T1 sequence (looked up): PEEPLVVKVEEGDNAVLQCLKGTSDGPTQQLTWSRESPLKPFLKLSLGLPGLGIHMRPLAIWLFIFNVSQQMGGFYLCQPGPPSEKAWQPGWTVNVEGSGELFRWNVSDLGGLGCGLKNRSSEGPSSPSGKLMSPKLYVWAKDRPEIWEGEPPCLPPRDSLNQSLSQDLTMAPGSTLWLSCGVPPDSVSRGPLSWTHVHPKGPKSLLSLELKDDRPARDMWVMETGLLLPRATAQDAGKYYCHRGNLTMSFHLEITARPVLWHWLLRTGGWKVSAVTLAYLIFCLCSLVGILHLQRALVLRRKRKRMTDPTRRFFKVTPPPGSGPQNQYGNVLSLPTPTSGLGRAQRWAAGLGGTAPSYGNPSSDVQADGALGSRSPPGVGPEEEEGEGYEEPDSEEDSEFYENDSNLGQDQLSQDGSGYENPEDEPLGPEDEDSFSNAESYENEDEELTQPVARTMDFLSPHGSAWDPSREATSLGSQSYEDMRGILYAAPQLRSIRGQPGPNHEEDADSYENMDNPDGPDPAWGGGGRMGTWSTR
# Experiments:
# [1] = biological target: T2, CD3 on T cells / Jurkat cells (human, UniProt P07766 23-207; P04234 22-171; P09693 23-182); assay: FACS on Jurkat cells
# T2 construct: whole, on cells; Native CD3 complex on CD3+ T cells isolated from normal donors or on Jurkat cells; also called human CD3; CD3+ T cells
# T2 sequence (P07766 23-207, chain 1 of 3): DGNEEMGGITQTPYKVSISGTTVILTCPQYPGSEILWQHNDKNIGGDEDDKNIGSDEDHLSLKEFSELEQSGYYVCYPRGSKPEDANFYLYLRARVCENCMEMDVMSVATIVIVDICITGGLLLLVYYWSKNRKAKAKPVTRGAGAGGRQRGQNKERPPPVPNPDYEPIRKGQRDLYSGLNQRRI
# T2 sequence (P04234 22-171, chain 2 of 3): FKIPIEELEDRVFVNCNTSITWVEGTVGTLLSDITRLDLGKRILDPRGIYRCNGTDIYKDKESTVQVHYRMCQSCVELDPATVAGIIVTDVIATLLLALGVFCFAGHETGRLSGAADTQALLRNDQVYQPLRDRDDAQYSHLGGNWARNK
# T2 sequence (P09693 23-182, chain 3 of 3): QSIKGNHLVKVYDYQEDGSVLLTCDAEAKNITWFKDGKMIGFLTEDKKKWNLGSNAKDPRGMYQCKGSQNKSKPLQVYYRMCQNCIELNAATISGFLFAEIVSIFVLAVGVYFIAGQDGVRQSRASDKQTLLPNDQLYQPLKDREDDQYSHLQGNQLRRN
# [2] = biological target: T3, GPRC5D on multiple myeloma cells (human, UniProt Q9NZD1 1-345); assay: FACS on multiple myeloma cell lines
# T3 construct: whole, on cells; Endogenous GPRC5D on multiple myeloma cell lines; also called G-protein coupled receptor family C group 5 member D; MM.1S, MOLP-8, L363, RPMI8226 cells
# T3 sequence (Q9NZD1 whole entry): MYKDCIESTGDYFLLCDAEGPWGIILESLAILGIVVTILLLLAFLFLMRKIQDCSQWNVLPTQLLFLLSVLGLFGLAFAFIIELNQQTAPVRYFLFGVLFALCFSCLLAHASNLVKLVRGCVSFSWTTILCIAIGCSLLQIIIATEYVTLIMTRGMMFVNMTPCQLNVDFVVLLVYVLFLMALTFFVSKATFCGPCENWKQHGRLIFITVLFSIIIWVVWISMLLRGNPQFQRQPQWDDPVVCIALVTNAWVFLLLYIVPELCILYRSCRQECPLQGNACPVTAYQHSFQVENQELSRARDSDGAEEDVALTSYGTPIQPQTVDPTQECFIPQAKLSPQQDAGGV
# [3] = biological target: T2, CD3 on T cells / Jurkat cells; assay: FACS on CD3+ T cells isolated from normal donors
# [4] = biological target: T1, CD19 on NALM6 cells, Raji cells and …; assay: FACS on primary B cells from healthy donors' PBMC (FIG. 45D)
# Method: (§1) To evaluate the binding affinity of the generated bispecific antibodies to NALM6 cells, Raji cells, Primary B cells, DoHH2 cells, SU-DHL-1 cells and Jurkat cells, the NALM6 cells expressing CD19, Raji cells expressing CD19, Primary B cells, DoHH2 cells expressing CD20, SU-DHL-1 cells without expressing CD19 or CD20 and Jurkat cells expressing CD3 were stained by the test antibodies and the binding affinity was determined by FACS analysis. Primary B cells were isolated from healthy donors' PBMC by human B cell enrichment Kit (Stemcell #19054). The protocol of FACS analysis is described as follows: [0933] (a) The cells from each cell line above were harvested and centrifuged at 300 g for 5 min, and the supernatant were discarded. […] (b) The cells were washed 2 times with FACS buffer. [0935] (c) Step (a) was repeated. [0936] […] [0937] (e) Step (b) was repeated and the cells were resuspended with 100 μl/well diluted secondary antibody, and incubated at 4° C. for 45 minutes in the dark. [0938] (f) Step (b) was repeated and the cells were resuspended the cells with 150 μl/well FACS buffer and kept in dark for FACS analysis.
# [5] = biological target: T1, CD19 on NALM6 cells, Raji cells and …; assay: FACS on NALM6 cells expressing CD19, another experiment (FIG. 45B)
# Method: as §1
# [6] = biological target: T1, CD19 on NALM6 cells, Raji cells and …; assay: FACS on Raji cells expressing CD19 (FIG. 45C)
# Method: as §1
# [7] = biological target: T2, CD3 on T cells / Jurkat cells; assay: FACS on Jurkat cells expressing CD3
# [8] = biological target: T3, GPRC5D on multiple myeloma cells; assay: FACS on MM.1S cells
binder,measurement,setting,value
"Bis-40E9-L2H3-Y101F.H (bispecific antibody, L234A/L235A) VH: EVQLVQSGAEVKKPGASVKVSCKASGYTFTSYVIHWVRQAPGQGLEWMGYFNPYNDGTKYNEEFKGRVTLTSDKSTSTAYMELRSLRSDDTAVYYCARGGVRRYFDVWGQGTTVTVSS VL: DIQMTQSPSSLSASVGDRVTITCRASQDIGSNLNWLQQKPGKAIKRLIYATFGLDSGVPSRFSGSRSGTDFTLTISSLQPEDFATYYCQQYASFPYTFGGGTKVEIK scFv: EVQLVQSGAEVKKPGSSVKVSCKASGYTFSSYVIHWVRQAPGQCLEWMGYINPYNDVIKYNEKFKGRVTLTSDKSTSTAYMELSSLRSEDTAVYYCARDSFYSYDGFAYWGQGTLVTVSSGGGGSGGGGSGGGGSGGGGSEIVLTQSPDFQSVTPKEKVTITCSASSSVSYMHWYQQKPDQSPKRLIYDTSKLASGVPSRFSGSGSGTDFTLTINSLEAEDAATYYCQQWSSNPPTFGCGTKVEIK",binding result,[1],binds
same,binding result,[2],binds
"Bis-40E9-L2H3-Y54G.H (bispecific antibody, L234A/L235A) VH: EVQLVQSGAEVKKPGASVKVSCKASGYTFTSYVIHWVRQAPGQGLEWMGYFNPYNDGTKYNEEFKGRVTLTSDKSTSTAYMELRSLRSDDTAVYYCARGGVRRYFDVWGQGTTVTVSS VL: DIQMTQSPSSLSASVGDRVTITCRASQDIGSNLNWLQQKPGKAIKRLIYATFGLDSGVPSRFSGSRSGTDFTLTISSLQPEDFATYYCQQYASFPYTFGGGTKVEIK scFv: EVQLVQSGAEVKKPGSSVKVSCKASGYTFSSYVIHWVRQAPGQCLEWMGYINPGNDVIKYNEKFKGRVTLTSDKSTSTAYMELSSLRSEDTAVYYCARDSYYSYDGFAYWGQGTLVTVSSGGGGSGGGGSGGGGSGGGGSEIVLTQSPDFQSVTPKEKVTITCSASSSVSYMHWYQQKPDQSPKRLIYDTSKLASGVPSRFSGSGSGTDFTLTINSLEAEDAATYYCQQWSSNPPTFGCGTKVEIK",binding result,[1],binds
same,binding result,[2],binds
"Bis-GD2-Fab3 (bispecific antibody, V domains shown, Fab3 format of WO2019154890A1: two anti-GD2 Fabs (humanized 3F8) and one anti-CD3 Fab (40-C12-C10-E9); also called Fab3 GD2xCD3 bispecific antibody) VH 1: QVQLVESGPGVVQPGRSLRISCAVSGFSVTNYGVHWVRQPPGKGLEWLGVIWAGGITNYNSAFMSRLTISKDNSKNTVYLQMNSLRAEDTAMYYCASRGGHYGYALDYWGQGTLVTVSS VL 1: EIVMTQTPATLSVSAGERVTITCKASQSVSNDVTWYQQKPGQAPRLLIYSASNRYSGVPARFSGSGYGTEFTFTISSVQSEDFAVYFCQQDYSSFGQGTKLEIK VH 2: EVQLQLSGPELVKPGASVKMSCKASGYTFSSYVIHWVKQKPGQGLEWIGYINPYNDVIKYNEKFKGKATLTSDKSSSTAYMELSSLTSEDSAVYYCARDSYYSYDGFAYWGQGTLVTVSA VL 2: QIVLTQSPAIMSASPGEKVTMTCSASSSVSYMHWYQQKSGTSPKRWIYDTSKLASGVPARFSGSGSGTSYSLTISSMEAEDAATYYCQQWSSNPPTFGGGTKVEIK",binding result,[3],binds
"ATG201-N55S-19B (bispecific antibody, human IgG1, kappa, L234A L235A, CD19xCD3 Fab-scFv-Fab: two C19B Fabs, anti-CD3 scFv 40E9-L2H3-N55S.H; L234A/L235A) heavy 1: not shown heavy 2: QVQLQQSGAELVRPGSSVKISCKASGYAFSSYWMNWVKQRPGQGLEWIGQIWPGDGDTNYNGKFKGKATLTADESSSTAYMQLSSLASEDSAVYFCARRETTTVGRYYYAMDYWGQGTTVTVSSASTKGPSVFPLAPSSKSTSGGTAALGCLVKDYFPEPVTVSWNSGALTSGVHTFPAVLQSSGLYSLSSVVTVPSSSLGTQTYICNVNHKPSNTKVDKKVEPKSCGGGGSGGGGSEVQLVQSGAEVKKPGSSVKVSCKASGYTFSSYVIHWVRQAPGQCLEWMGYINPYSDVIKYNEKFKGRVTLTSDKSTSTAYMELSSLRSEDTAVYYCARDSYYSYDGFAYWGQGTLVTVSSGGGGSGGGGSGGGGSGGGGSEIVLTQSPDFQSVTPKEKVTITCSASSSVSYMHWYQQKPDQSPKRLIYDTSKLASGVPSRFSGSGSGTDFTLTINSLEAEDAATYYCQQWSSNPPTFGCGTKVEIKGGGGSGGGGSDKTHTCPPCPAPEAAGGPSVFLFPPKPKDTLMISRTPEVTCVVVDVSHEDPEVKFNWYVDGVEVHNAKTKPREEQYNSTYRVVSVLTVLHQDWLNGKEYKCKVSNKALPAPIEKTISKAKGQPREPQVCTLPPSREEMTKNQVSLSCAVKGFYPSDIAVEWESNGQPENNYKTTPPVLDSDGSFFLVSKLTVDKSRWQQGNVFSCSVMHEALHNHYTQKSLSLSPGK light: not shown",EC50,[4],442 pM
same,EC50,[5],513 pM
same,EC50,[6],1110 pM
same,binding result,[7],binds
"ATG201-Y101F-19B (bispecific antibody, human IgG1, kappa, L234A L235A, CD19xCD3 Fab-scFv-Fab: two C19B Fabs, anti-CD3 scFv 40E9-L2H3-Y101F.H; L234A/L235A) heavy 1: not shown heavy 2: QVQLQQSGAELVRPGSSVKISCKASGYAFSSYWMNWVKQRPGQGLEWIGQIWPGDGDTNYNGKFKGKATLTADESSSTAYMQLSSLASEDSAVYFCARRETTTVGRYYYAMDYWGQGTTVTVSSASTKGPSVFPLAPSSKSTSGGTAALGCLVKDYFPEPVTVSWNSGALTSGVHTFPAVLQSSGLYSLSSVVTVPSSSLGTQTYICNVNHKPSNTKVDKKVEPKSCGGGGSGGGGSEVQLVQSGAEVKKPGSSVKVSCKASGYTFSSYVIHWVRQAPGQCLEWMGYINPYNDVIKYNEKFKGRVTLTSDKSTSTAYMELSSLRSEDTAVYYCARDSFYSYDGFAYWGQGTLVTVSSGGGGSGGGGSGGGGSGGGGSEIVLTQSPDFQSVTPKEKVTITCSASSSVSYMHWYQQKPDQSPKRLIYDTSKLASGVPSRFSGSGSGTDFTLTINSLEAEDAATYYCQQWSSNPPTFGCGTKVEIKGGGGSGGGGSDKTHTCPPCPAPEAAGGPSVFLFPPKPKDTLMISRTPEVTCVVVDVSHEDPEVKFNWYVDGVEVHNAKTKPREEQYNSTYRVVSVLTVLHQDWLNGKEYKCKVSNKALPAPIEKTISKAKGQPREPQVCTLPPSREEMTKNQVSLSCAVKGFYPSDIAVEWESNGQPENNYKTTPPVLDSDGSFFLVSKLTVDKSRWQQGNVFSCSVMHEALHNHYTQKSLSLSPGK light: not shown",EC50,[4],359 pM
same,EC50,[5],508 pM
same,EC50,[6],1110 pM
same,binding result,[7],binds
"ATG-Bis-40E9 (bispecific antibody, L234A/L235A; also called chimeric 2+1 bispecific antibody; parental antibody) VH: EVQLQQSGPELVKPGASVKMSCKASGYTFTSYVIHWVKQKTGQGLEWIGYFNPYNDGTKYNEEFKGKATLTSDKSSNTAYMELNSLTSDDSAVYFCARGGVRRYFDVWGAGTTVTVSS VL: DIQMTQSPSSLSASLGERVSLTCRASQDIGSNLNWLQQEPDGTIKRLIYATFGLDSGVPKRFSGSRSGSDYSLTISSLESEDFVDYYCQQYASFPYTFGGGTKLEIK scFv: EVQLQLSGPELVKPGASVKMSCKASGYTFSSYVIHWVKQKPGQGLEWIGYINPYNDVIKYNEKFKGKATLTSDKSSSTAYMELSSLTSEDSAVYYCARDSYYSYDGFAYWGQGTLVTVSAGGGGSGGGGSGGGGSGGGGSQIVLTQSPAIMSASPGEKVTMTCSASSSVSYMHWYQQKSGTSPKRWIYDTSKLASGVPARFSGSGSGTSYSLTISSMEAEDAATYYCQQWSSNPPTFGGGTKVEIK",binding result,[3],binds
same,binding result,[8],binds
"Bis-GD2-Fab2-scFv (bispecific antibody, Two anti-GD2 Fabs (humanized 3F8) and one anti-CD3 scFv (40-C12-C10-E9) joined by (GGGGS)2 linkers to CH1 of one Fab and to CH2; L234A/L235A; also called Fab-scFv-Fab GD2xCD3 bispecific antibody) VH: QVQLVESGPGVVQPGRSLRISCAVSGFSVTNYGVHWVRQPPGKGLEWLGVIWAGGITNYNSAFMSRLTISKDNSKNTVYLQMNSLRAEDTAMYYCASRGGHYGYALDYWGQGTLVTVSS VL: EIVMTQTPATLSVSAGERVTITCKASQSVSNDVTWYQQKPGQAPRLLIYSASNRYSGVPARFSGSGYGTEFTFTISSVQSEDFAVYFCQQDYSSFGQGTKLEIK scFv: EVQLQLSGPELVKPGASVKMSCKASGYTFSSYVIHWVKQKPGQGLEWIGYINPYNDVIKYNEKFKGKATLTSDKSSSTAYMELSSLTSEDSAVYYCARDSYYSYDGFAYWGQGTLVTVSAGGGGSGGGGSGGGGSGGGGSQIVLTQSPAIMSASPGEKVTMTCSASSSVSYMHWYQQKSGTSPKRWIYDTSKLASGVPARFSGSGSGTSYSLTISSMEAEDAATYYCQQWSSNPPTFGGGTKVEIK",binding result,[3],binds
